Experimental findings from publication PMC5703881 are described below.

What is called Kd is the equilibrium constant for the complex coming apart. Lower therefore signals tighter binding.

Among the test systems are 72H11 IgG (human); 71F12GL-SFH (human); 71F12GL-SF (human).
Common to all, as to test: SPR
Holding throughout (details): Bead assay: PBS with 1% BSA, antibody 0.2 or 2 ug/ml, 1 h, 22 C; SPR conditions not in the material

For data set [1], the system named is 71F12 GL (germline-reverted) (human).

Sequence “TAATACGACTCACTATAGGG (double strand) [biotinylated 20-bp dsDNA (Fig. 4A)]” returned a Kd in the data set with 72H11 IgG (human) of 400 nM. TTTTT [5-mer T5] displayed a fold reduction in affinity (fold lower affinity than 71F12) in data set [1] of 50. The sequence GGGGGGGGT [9-mer G8T] showed a fold reduction in affinity (fold lower affinity than for GGGGGGTTT) in the data set with 71F12GL-SFH (human) of 150.

Regarding GGGGGGTTT [9-mer G6T3], in the data set on 71F12GL-SF (human), the fold reduction in affinity (fold lower affinity than 71F12GL-SFH) stood at 30.
